The source of these data is the DeepSol protein solubility set.

This series is described as follows: soluble on expression in E. coli; label from the status in PepcDB or PDB records.
For “MRSTKVIHIVGCHAEGEVGDVIVGGVAPPPGETVWEQSRFIANDETLRNFVLNKPRGGVFRHVNLLVPPKDPRAQMGFIIMEPADTPPMSGSNSICVSTVLLDSGIIAMQEPVTHMVLEAPGGIIEVEAECRNGKAERISVRNVPSFADRLDAPLDVTGLGTIMVDTAYGGDSFVIVDAAQIGMKIEPGQARELAEIGVKITKAANEQLGFRHPERDWRHISFCQITEPVTREGDVLTGVNTVAIRPAKFDRSPTGTGCSARMAVLHAKGQMKAGERFIGKSVLGTEFHCRLDKVLELGGKPAISPIISGRAWVTGTSQLMLDPSDPFPHGYRLSDTWPRDELEHHHHHH”, the “soluble on expression in E. coli” value is listed as “soluble”.

For “MRNKNMSTIYQTSATASAGRNGVVSTEDKLLELNLSYPKEMGGSGTATNPEQLFAVGYAACFSNAILHVAREAKVALKEAPVTATVGIGPNGQGGFALSVALAAHIALEDEQARQLVTVAHQVCPYSNAVRGNIDVQVSVNGLAL”, the “soluble on expression in E. coli” value is “not soluble”.

Turning to “MGSDKIHHHHHHMQTFHELEQTQSVIATILRNSLQTNRINHAYIFTGDYEPLLLEAAQLFAKSLFCERRDQIEPCQTCRSCRRMDSGNLVDYYQIEPDGATIKKEQIQELMHDLSLRGLEGDRQIYVVTQSHKMTPQAANSLLKFFEEPGAGKVAILITNQPQLLLPTIRSRGQLLSFRPADRLLIGQVLSEKTGRDNELTQLAARVYPKIEDAEQALVEDWFVNARVSVLQLMEELANRPADLPLFVQEKWMSQFKNRQDARIGLELVTCFFEDVLHLKLNPSWETITYANSRPLLEQMGGKSQTTITRWLQAVLAAVKRIEANVNPQLTVERLMFDLQKG”, the “soluble on expression in E. coli” value is given as “not soluble”.

As to “MGHHHHHHSHMRPDCDGWLLLRKAPGGFMGPRWRRRWFVLKGHTLYWYRQPQDEKAEGLINVSNYSLESGHDQKKKYVFQLTHDVYKPFIFAADTLTDLSMWVRHLITCIS”, the “soluble on expression in E. coli” value is on record as “not soluble”.

With “GPGSMSQQNAVEALLARLQMGDTIPAFQSMGVDRIVSLRKMSEEALSQAVPDPEQRQALMDAIESRGHLQSRRAGPPAGQPHPPRSADADFARGGNDEGRGGYAPRGDRGGRIARGGRGGGRGAGAPNGDDAARVCRHVFTPEGCKYGDKCRYSHDENDRRRAQEVPTGSGMAQRSLERPPPNFKFSIEVEIPTERIKYLLGSQGNNMKFINETCGTYNERFDHVDEKEETFTIRILGGSEEAINKAKEMLLLSAGVKREEEKKDRFQYAVNELDANTHAARLFAACNTKNKDTTRHLSDSIMRNIVSSFHFVRPQEVRHFYMYTSSSDKDKLEMVSKIVSQLKGVQAILFCDQKRVEEMCKGSQRIARHFNGVEPQFVYRQLSKEDRMMALERFKKGVENENGVRQRLLVTNEDYAKLARKTIIPYVNLVINFSVPRAEEYYVLQSQVAGRQGTIGASFLCVSNYEEALFRELEKNIQFERFEDEEHFRTTAVELSYDTTAQPLTPEDADPPADWREHLNDKKPRQNFGKRR”, the “soluble on expression in E. coli” value was “soluble”.

Take “NDVKRALEVEEINKLLNEVPLKRLPEDLVRCRVWANLMFQLRGMPFVDLAFLHKSDLKGNTLSYRRHKTGGQMIVDIPPTAMELIRQYQNTDCNSPYLFPILSGTKTGEELYIEYQQALRIMNYNLGRLARRCGVITKVSSYTTRHTWATLAKYCNFSEQLICEAFGHSSVKVTETYLKNFKYEEIKKANDAI”: the “soluble on expression in E. coli” value is “not soluble”.

On to “MLTEERHQKILQLLDQKSVVKSQELASLFNASESTIRRDLQELEDANLLERIHGGAKRILNLGFEQNMTEKSIKNTHEKQKIASLAVSCVQDGDMIYLDAGSTTLEMIPFLVGKQIHVVTNSVHHAAKLSDMEIPTIMLGGTLKLSTKAIIGATSMEQLQHFRFNKAFLGTNGAHLEFGLTTPDPEEAALKALAIHQAETAYVLLDHTKFNEVTFTKVEELESVTLLTDYCPAESLQGFQQKTILMEANKLEHHHHHH”, for which the “soluble on expression in E. coli” value was “soluble”.

Turning to “GIQVRDCMIPRNEMIACELQTDIEVLKTTFIDTGLSKIIIYRQNIDDVVGYIHSSEMFRGQDWQKRINTTVFVPESMYANKLMRLLMQRKKSIAIVIDELGGTAGMVTLEDLVEEIFGDIEDEH”, the “soluble on expression in E. coli” value was “not soluble”.

Consider “MGSDKIHHHHHHMGRRGLMTETTYYVNGTEVYVAEIPSNQSTETFFLIHGFVSSTYSYRKLMPLLAKRGRVISVDLPGFGRSGKGRTFTYSFQCYAELMVALMRKLNVSKVTFVGHSMGGQVALYVAKWKPHLVKRLVLLSSSGYLQRVKRPFYFLSYIPFLRQMVKWYVQRQDVTKALQQVVYNKGIVNNEAVEMYRLPLADETFYDALLCLMRQREGDLPKEELRKIHHPVLLLWGEQDRVIPVKIGQRLASDLPNASLIVYKNTGHLLPEERPKEIMKAIDRFIRKRRQFSFFS”, for which the “soluble on expression in E. coli” value is given as “not soluble”.

Regarding “MEINENPTSFKGFKILQLSDLHNKSFGNNNNRLVKKIIGENPDIIVMTGDMVNAKDNDFEVFINLAEQISKSFDVYYIVGNHEQDLNEDKRKILMDKLSEIGIRVLDNEKVTISRGAESINLYGLWFNLRYYKDLKNEYTKDVFFGTKQIQSILGDLDTDSYNILLTHNPLYADTYSNWGADLTLSGHIHGGMIRIPFVGGLLSPEREFFPEYDAGKYQVNGKILIVNRGLGNGDFGIRVFNPPEISVIMLSNLEHHHHHH”, the “soluble on expression in E. coli” value was “not soluble”.

“MRIPRDTGAAEPGQYRTARTPYAREPMRCLSPAHPCKRVVTMVASQLMKTQIALNWIGALIHMSPSNILTLLPSLSLAKRVSARISKTINATPVLRERVASPRSRDARNTMDTKEFEGGALFATTAGSAANLAELSARFVYGDEVDRWDVDVDDEGDPIELAETRGSTFGRNAKFYFSSSPTIKGASRIDDLFSTSDQRYYYVPCPSCGHMQTLEWERLLYSPDFSTVHYQCAGPDCDVLIEEFHKGDMLARGEWRSHADGDGETVGFHLNALYAPLGWQSWSSLAKQYEKAKKAQDRGDLEPMQVFYNTRLAKVWDSAQEQTKAAVLQARALLEDYVLGTMPTGVLSLVSAVDVQANRLEMMVVGCGEGMERWIVDFQVIMGDPADDRTWLALDEKLKERYRHPCGVSLAILATAVDSGGHHTHEVYQFCRVRRWRNVFAIKGASKPGKPVIAQRPSLVDVTWKGQTERNGAELWMVGTDTAKDWIYNRYHLESGPGALHFPKDLPDDFFAQCVAERKVTRYVKGFKRIEWVKGKAERNEALDLLVYSLAMAHYLGLHRYGEHDW”: the “soluble on expression in E. coli” value is “not soluble”.

For the sequence “MGSDKIHHHHHHMMIKVFPKLRKQIWGSYRLGEMFGSNEKIGEVWLLSGHPLFITEAEGGLDLNEDMEKLIGKKLPRFPLLVKLISAEDWLSVQVHPNDDEAQELENEPWGKTEAWYFVEKGQIAIGEDPEKVKRALEDNSWDEALKKVEIEPGTFVFLPAGTVHALGPGGLLVEVQQASDLTYRVYDWGRGRELHIEKAFKVMKERKVEDLIVENFENFECEYFRIEKLERGKLEGFCAIVILENGVLDNRQVSPFETFIVPKGEKAELRATALVMRIGKFFEQWGDKK”, the “soluble on expression in E. coli” value is “not soluble”.

Regarding “NTAPSLTVPECAICLQTCVHPVSLPCKHVFCYLCVKGASWLGKRCALCRQEIPEDFLD”, the “soluble on expression in E. coli” value is on record as “soluble”.

“MKQLTILGSTGSIGCSTLDVVRHNPDSFRVIALVAGKNVARMAEQCLEFSPRYAVMDDTSSAEQLKIMLQQHGSRTEVLSGQQAACEMAALDEVGHVMAAIVGAAGLLPTLAAIRAGKTILLANKESLVTCGRLFMDEVKRSNARLLPVDSEHNAIFQSLPQSIQHNLGYADLEQNGVTSILLTGSGGPFRETPMCDLAAMTPDQACRHPNWSMGRKISVDSATMMNKGLEYIEARWLFNASARQMEVLIHPQSVIHSMVRYQDGSVLAQLGEPDMRTPIAHTMAWPNRVTSGAQPLDFCKLSALTFSAPDYQRYPCLKLAMEAFEQGQAATTALNAANEITVAAFLAQQIRFTDIAGLNLAVLERMDLQEPASVEDVLQVDAIAREVARKQVIRLSR”: the “soluble on expression in E. coli” value is on record as “not soluble”.

For “MQAKEEKEFTLQERRCLIVWVYTLKPLKQLRRYGLIHYVSRKMKYVVIYMNEENIESNMEKINQLHFVRSVDKSYRPDVEMNFAEKIGTKAAYQEQEDDGYVVEELSTEIRLAENV”, the “soluble on expression in E. coli” value was “not soluble”.

For “MSHVFQIHSSQYKSPSQIPQGKVLVVGGGNSGMQIAVEFAKTHEVTMSISHPLTFLPLHFFRKSIFNWLEKLGLLYAEVSTKRGKWFQKRKDPIFGFEGKELIRNGAIQLQEKVVSASENNIMFQNGETYSAESIIWSTGFIQNYNWIEIEKVVNENGLPNHIKGISPVRGLYYIGLEHHHHHH”, the “soluble on expression in E. coli” value is on record as “soluble”.
